Patent US20250320281A1

Assays:
[1] = target: WT JR-FL gp120 (HIV-1); assay: ELISA, antigen-coated wells
[2] = target: HIV-1 Env of pseudovirus isolate MGRM-G-027 (HIV-1); assay: cell-based or functional assay
[3] = target: HIV-1 MGRM-D-018 Env (pseudovirus) (HIV-1); assay: cell-based or functional assay
[4] = target: HIV-1 Env of isolate MGRM-C-001 (HIV-1); assay: cell-based or functional assay
[5] = target: HIV-1 Env of isolate MGRM-C-009 (HIV-1); assay: cell-based or functional assay
[6] = target: HIV-1 CMU02 Env (pseudovirus) (HIV-1); assay: cell-based or functional assay
[7] = target: HIV-1 Env of isolate MGRM-C-005 (HIV-1); assay: cell-based or functional assay
[8] = target: HIV-1 94UG103 Env (pseudovirus) (HIV-1); assay: cell-based or functional assay
[9] = target: HIV-1 APV6 Env (pseudovirus) (HIV-1); assay: cell-based or functional assay
[10] = target: HIV-1 MGRM-C-028 Env (pseudovirus) (HIV-1); assay: cell-based or functional assay
[11] = target: envelope of aMLV pseudovirus (negative control); assay: cell-based or functional assay
[12] = target: HIV-1 Env of isolate MGRM-C-023 (HIV-1); assay: cell-based or functional assay
[13] = target: HIV-1 JRCSF Env (pseudovirus) (HIV-1) (UniProt P20871); assay: cell-based or functional assay
[14] = target: HIV-1 Env of pseudovirus isolate MGRM-G-017 (HIV-1); assay: cell-based or functional assay
[15] = target: HIV-1 MGRM-C-026 Env (pseudovirus) (HIV-1); assay: cell-based or functional assay
[16] = target: HIV-1 Env of isolate MGRM-C-002 (HIV-1); assay: cell-based or functional assay
[17] = target: HIV-1 NL43 Env (pseudovirus) (HIV-1); assay: cell-based or functional assay
[18] = target: HIV-1 Env of isolate MGRM-C-014 (HIV-1); assay: cell-based or functional assay
[19] = target: HIV-1 Env of isolate MGRM-C-020 (HIV-1); assay: cell-based or functional assay
[20] = target: HIV-1 Env of pseudovirus isolate MGRM-G-015 (HIV-1); assay: cell-based or functional assay
[21] = target: HIV-1 Env of pseudovirus isolate MGRM-G-006 (HIV-1); assay: cell-based or functional assay
[22] = target: HIV-1 Env of isolate MGRM-C-004 (HIV-1); assay: cell-based or functional assay
[23] = target: HIV-1 MGRM-C-027 Env (pseudovirus) (HIV-1); assay: cell-based or functional assay
[24] = target: HIV-1 Env of isolate MGRM-C-024 (HIV-1); assay: cell-based or functional assay
[25] = target: HIV-1 Env of isolate MGRM-C-022 (HIV-1); assay: cell-based or functional assay
[26] = target: HIV-1 Env of isolate MGRM-C-012 (HIV-1); assay: cell-based or functional assay
[27] = target: HIV-1 Env of isolate MGRM-C-013 (HIV-1); assay: cell-based or functional assay
[28] = target: HIV-1 Env of pseudovirus isolate MGRM-G-014 (HIV-1); assay: cell-based or functional assay
[29] = target: HIV-1 Env of isolate MGRM-C-010 (HIV-1); assay: cell-based or functional assay
[30] = target: HIV-1 Env of isolate MGRM-C-019 (HIV-1); assay: cell-based or functional assay
[31] = target: HIV-1 Env of isolate MGRM-C-017 (HIV-1); assay: cell-based or functional assay
[32] = target: HIV-1 Env of pseudovirus isolate MGRM-G-004 (HIV-1); assay: cell-based or functional assay
[33] = target: HIV-1 92TH021 Env (pseudovirus) (HIV-1); assay: cell-based or functional assay
[34] = target: HIV-1 Env of pseudovirus isolate MGRM-G-013 (HIV-1); assay: cell-based or functional assay
[35] = target: HIV-1 Env of pseudovirus isolate MGRM-G-011 (HIV-1); assay: cell-based or functional assay
[36] = target: HIV-1 Env of pseudovirus isolate MGRM-G-009 (HIV-1); assay: cell-based or functional assay
[37] = target: HIV-1 Env of pseudovirus isolate MGRM-G-016 (HIV-1); assay: cell-based or functional assay
[38] = target: HIV-1 Env of isolate MGRM-C-008 (HIV-1); assay: cell-based or functional assay
[39] = target: HIV-1 Env of pseudovirus isolate MGRM-G-019 (HIV-1); assay: cell-based or functional assay
[40] = target: HIV-1 Env of pseudovirus isolate MGRM-G-001 (HIV-1); assay: cell-based or functional assay
[41] = target: HIV-1 92RW020 Env (pseudovirus) (HIV-1); assay: cell-based or functional assay
[42] = target: HIV-1 MGRM-A-010 Env (pseudovirus) (HIV-1); assay: cell-based or functional assay
[43] = target: HIV-1 Env of isolate MGRM-C-025 (HIV-1); assay: cell-based or functional assay
[44] = target: HIV-1 92UG005 Env (pseudovirus) (HIV-1); assay: cell-based or functional assay
[45] = target: HIV-1 Env of isolate MGRM-C-006 (HIV-1); assay: cell-based or functional assay
[46] = target: HIV-1 Env of isolate MGRM-C-015 (HIV-1); assay: cell-based or functional assay
[47] = target: HIV-1 Env of isolate MGRM-C-007 (HIV-1); assay: cell-based or functional assay
[48] = target: HIV-1 92UG024 Env (pseudovirus) (HIV-1); assay: cell-based or functional assay
[49] = target: HIV-1 93IN905 Env (pseudovirus) (HIV-1); assay: cell-based or functional assay

4877_D15 (PGT-122) (antibody)
EC50 [1]: 0.3 µg/mL
IC50 (µg/mL), pseudovirus neutralization [2]: 0.606 µg/mL
neutralization IC50 (pseudovirus) [3]: 0.0115 µg/mL
neutralization IC50 [4]: 19.1 µg/mL
neutralization IC50 [5]: > 50 µg/mL
neutralization IC50 (pseudovirus) [6]: > 10 µg/mL
neutralization IC50 [7]: 0.027 µg/mL
neutralization IC50 (pseudovirus) [8]: 1.46 µg/mL
neutralization IC50 (pseudovirus) [9]: 0.0851 µg/mL
neutralization IC50 (pseudovirus) [10]: 2.06 µg/mL
IC50 (µg/mL), pseudovirus neutralization [11]: > 50 µg/mL
neutralization IC50 [12]: 0.027 µg/mL
neutralization IC50 (pseudovirus) [13]: 0.0727 µg/mL
IC50 (µg/mL), pseudovirus neutralization [14]: 0.032 µg/mL
neutralization IC50 (pseudovirus) [15]: 0.0089 µg/mL
neutralization IC50 [16]: 0.022 µg/mL
neutralization IC50 (pseudovirus) [17]: > 10 µg/mL
neutralization IC50 [18]: > 50 µg/mL
neutralization IC50 [19]: 14 µg/mL
IC50 (µg/mL), pseudovirus neutralization [20]: > 50 µg/mL
IC50 (µg/mL), pseudovirus neutralization [21]: > 50 µg/mL
neutralization IC50 [22]: 0.02 µg/mL
neutralization IC50 (pseudovirus) [23]: 0.0388 µg/mL
neutralization IC50 [24]: 0.102 µg/mL
neutralization IC50 [25]: 0.012 µg/mL
neutralization IC50 [26]: 2 µg/mL
neutralization IC50 [27]: 32.6 µg/mL
IC50 (µg/mL), pseudovirus neutralization [28]: 0.008 µg/mL
neutralization IC50 [29]: > 50 µg/mL
neutralization IC50 [30]: > 50 µg/mL
neutralization IC50 [31]: 0.015 µg/mL
IC50 (µg/mL), pseudovirus neutralization [32]: 2.15 µg/mL
neutralization IC50 (pseudovirus) [33]: > 10 µg/mL
IC50 (µg/mL), pseudovirus neutralization [34]: 3.45 µg/mL
IC50 (µg/mL), pseudovirus neutralization [35]: 31.3 µg/mL
IC50 (µg/mL), pseudovirus neutralization [36]: 0.514 µg/mL
IC50 (µg/mL), pseudovirus neutralization [37]: > 50 µg/mL
neutralization IC50 [38]: 0.028 µg/mL
IC50 (µg/mL), pseudovirus neutralization [39]: 0.016 µg/mL
IC50 (µg/mL), pseudovirus neutralization [40]: 0.005 µg/mL
neutralization IC50 (pseudovirus) [41]: 0.0072 µg/mL
neutralization IC50 (pseudovirus) [42]: 1.68 µg/mL
neutralization IC50 [43]: 8.69 µg/mL
neutralization IC50 (pseudovirus) [44]: > 10 µg/mL
neutralization IC50 [45]: 0.018 µg/mL
neutralization IC50 [46]: > 50 µg/mL
neutralization IC50 [47]: 3.35 µg/mL
neutralization IC50 (pseudovirus) [48]: > 10 µg/mL
neutralization IC50 (pseudovirus) [49]: 0.0138 µg/mL
